Laboratory results taken from patent US20220098307A1 (WUHAN YZY BIOPHARMA, published 2022).
Residue numbers refer to the chain shown, from its start. Names may count otherwise. Read-outs that look alike come from different tables or passages of the source.

T1: human CEA (human, UniProt P06731 35-685)
T1 sequence: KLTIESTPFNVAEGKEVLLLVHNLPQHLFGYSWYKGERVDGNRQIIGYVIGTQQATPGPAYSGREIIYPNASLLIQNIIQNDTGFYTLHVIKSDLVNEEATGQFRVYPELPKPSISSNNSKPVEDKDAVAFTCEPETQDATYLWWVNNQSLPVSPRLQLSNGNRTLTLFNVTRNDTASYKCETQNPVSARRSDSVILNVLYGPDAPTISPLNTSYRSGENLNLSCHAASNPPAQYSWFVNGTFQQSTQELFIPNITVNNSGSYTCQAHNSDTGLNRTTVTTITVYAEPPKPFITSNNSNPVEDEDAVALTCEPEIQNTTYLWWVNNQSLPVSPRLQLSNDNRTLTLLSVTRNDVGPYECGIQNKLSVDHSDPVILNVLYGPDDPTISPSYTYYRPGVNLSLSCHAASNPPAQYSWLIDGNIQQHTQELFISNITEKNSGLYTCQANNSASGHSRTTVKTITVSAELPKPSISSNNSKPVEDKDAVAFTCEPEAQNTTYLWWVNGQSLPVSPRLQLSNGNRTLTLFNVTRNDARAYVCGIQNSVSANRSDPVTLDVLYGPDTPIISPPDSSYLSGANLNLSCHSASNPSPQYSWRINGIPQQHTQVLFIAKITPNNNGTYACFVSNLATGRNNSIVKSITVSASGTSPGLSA

T2: Human BCMA (human, UniProt Q02223 1-54)
T2 sequence: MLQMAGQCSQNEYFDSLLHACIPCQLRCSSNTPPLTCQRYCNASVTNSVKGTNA

B1: CEA-M3-WT (bispecific antibody)
fusion heavy: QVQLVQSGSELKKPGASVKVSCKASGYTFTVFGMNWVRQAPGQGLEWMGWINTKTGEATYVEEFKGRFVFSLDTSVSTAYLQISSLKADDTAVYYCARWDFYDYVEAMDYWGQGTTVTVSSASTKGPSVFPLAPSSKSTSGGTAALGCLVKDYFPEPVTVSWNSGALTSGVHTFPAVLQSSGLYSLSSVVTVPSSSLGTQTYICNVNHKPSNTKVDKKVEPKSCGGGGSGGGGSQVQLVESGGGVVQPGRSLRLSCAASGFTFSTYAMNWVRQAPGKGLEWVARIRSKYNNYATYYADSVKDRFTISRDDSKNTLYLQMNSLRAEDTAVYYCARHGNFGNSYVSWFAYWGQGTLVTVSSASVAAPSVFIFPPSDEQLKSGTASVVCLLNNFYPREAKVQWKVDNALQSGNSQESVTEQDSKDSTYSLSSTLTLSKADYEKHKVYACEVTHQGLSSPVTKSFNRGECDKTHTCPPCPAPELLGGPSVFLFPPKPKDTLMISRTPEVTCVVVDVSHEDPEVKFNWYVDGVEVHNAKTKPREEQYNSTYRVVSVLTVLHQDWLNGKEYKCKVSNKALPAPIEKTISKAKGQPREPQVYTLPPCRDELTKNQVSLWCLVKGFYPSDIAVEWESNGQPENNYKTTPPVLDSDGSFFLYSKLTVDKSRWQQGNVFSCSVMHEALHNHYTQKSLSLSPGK
cross light: QTVVTQEPSLTVSPGGTVTLTCRSSTGAVTTSNYANWVQQKPGQAPRGLIGGTNKRAPGVPARFSGSLLGGKAALTLSGVQPEDEAEYYCALWYSNLWVFGGGTKVEIKSSASTKGPSVFPLAPSSKSTSGGTAALGCLVKDYFPEPVTVSWNSGALTSGVHTFPAVLQSSGLYSLSSVVTVPSSSLGTQTYICNVNHKPSNTKVDKKVEPKSC
heavy: QVQLVQSGSELKKPGASVKVSCKASGYTFTVFGMNWVRQAPGQGLEWMGWINTKTGEATYVEEFKGRFVFSLDTSVSTAYLQISSLKADDTAVYYCARWDFYDYVEAMDYWGQGTTVTVSSASTKGPSVFPLAPSSKSTSGGTAALGCLVKDYFPEPVTVSWNSGALTSGVHTFPAVLQSSGLYSLSSVVTVPSSSLGTQTYICNVNHKPSNTKVDKKVEPKSCDKTHTCPPCPAPELLGGPSVFLFPPKPKDTLMISRTPEVTCVVVDVSHEDPEVKFNWYVDGVEVHNAKTKPREEQYNSTYRVVSVLTVLHQDWLNGKEYKCKVSNKALPAPIEKTISKAKGQPREPQVCTLPPSRDELTKNQVSLSCAVKGFYPSDIAVEWESNGQPENNYKTTPPVLDSDGSFFLVSKLTVDKSRWQQGNVFSCSVMHEALHNRFTQKSLSLSPGK
light: DIQMTQSPSSLSASVGDRVTITCKASQNVGTNVAWYQQKPGKAPKLLIYSASYRYSGVPSRFSGSGSGTDFTFTISSLQPEDIATYYCHQYYTYPLFTFGQGTKVEIKRTVAAPSVFIFPPSDEQLKSGTASVVCLLNNFYPREAKVQWKVDNALQSGNSQESVTEQDSKDSTYSLSSTLTLSKADYEKHKVYACEVTHQGLSSPVTKSFNRGEC
notes: structure 3; CEA x CD3; CH2 WT; copies: 1 + 1 + 1 + 2
B2: CEA-M3-NA (bispecific antibody, human IgG1, kappa, N297A)
fusion heavy: QVQLVQSGSELKKPGASVKVSCKASGYTFTVFGMNWVRQAPGQGLEWMGWINTKTGEATYVEEFKGRFVFSLDTSVSTAYLQISSLKADDTAVYYCARWDFYDYVEAMDYWGQGTTVTVSSASTKGPSVFPLAPSSKSTSGGTAALGCLVKDYFPEPVTVSWNSGALTSGVHTFPAVLQSSGLYSLSSVVTVPSSSLGTQTYICNVNHKPSNTKVDKKVEPKSCGGGGSGGGGSQVQLVESGGGVVQPGRSLRLSCAASGFTFSTYAMNWVRQAPGKGLEWVARIRSKYNNYATYYADSVKDRFTISRDDSKNTLYLQMNSLRAEDTAVYYCARHGNFGNSYVSWFAYWGQGTLVTVSSASVAAPSVFIFPPSDEQLKSGTASVVCLLNNFYPREAKVQWKVDNALQSGNSQESVTEQDSKDSTYSLSSTLTLSKADYEKHKVYACEVTHQGLSSPVTKSFNRGECDKTHTCPPCPAPELLGGPSVFLFPPKPKDTLMISRTPEVTCVVVDVSHEDPEVKFNWYVDGVEVHNAKTKPREEQYASTYRVVSVLTVLHQDWLNGKEYKCKVSNKALPAPIEKTISKAKGQPREPQVYTLPPCRDELTKNQVSLWCLVKGFYPSDIAVEWESNGQPENNYKTTPPVLDSDGSFFLYSKLTVDKSRWQQGNVFSCSVMHEALHNHYTQKSLSLSPGK
cross light: B1 cross light
heavy: B1 heavy with N301A
light: B1 light
notes: structure 3; CEA x CD3; CH2 N297A; copies: 1 + 1 + 1 + 2
B3: CEA-M3-AAG (bispecific antibody)
fusion heavy: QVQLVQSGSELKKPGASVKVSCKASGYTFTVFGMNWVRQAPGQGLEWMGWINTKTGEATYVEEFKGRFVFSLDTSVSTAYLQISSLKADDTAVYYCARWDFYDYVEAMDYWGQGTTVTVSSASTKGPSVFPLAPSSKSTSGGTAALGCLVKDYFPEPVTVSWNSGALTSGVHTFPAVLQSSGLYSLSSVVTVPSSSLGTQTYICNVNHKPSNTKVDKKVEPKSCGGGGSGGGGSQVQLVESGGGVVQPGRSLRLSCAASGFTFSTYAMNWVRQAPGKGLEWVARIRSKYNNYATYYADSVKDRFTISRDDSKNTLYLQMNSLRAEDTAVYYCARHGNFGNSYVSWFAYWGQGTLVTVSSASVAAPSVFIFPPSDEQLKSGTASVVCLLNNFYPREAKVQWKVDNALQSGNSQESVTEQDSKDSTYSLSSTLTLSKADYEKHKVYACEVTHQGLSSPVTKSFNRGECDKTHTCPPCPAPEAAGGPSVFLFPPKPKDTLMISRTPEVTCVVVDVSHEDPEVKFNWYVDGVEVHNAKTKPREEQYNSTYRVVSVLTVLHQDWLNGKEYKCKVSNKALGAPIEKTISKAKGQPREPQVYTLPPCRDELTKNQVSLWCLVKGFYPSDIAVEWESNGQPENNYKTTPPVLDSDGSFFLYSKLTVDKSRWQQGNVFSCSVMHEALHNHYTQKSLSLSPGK
cross light: B1 cross light
heavy: B1 heavy with L238A, L239A, P333G
light: B1 light
notes: structure 3; CEA x CD3; CH2 AAG; copies: 1 + 1 + 1 + 2
B4: CEA-M3-FES (bispecific antibody, human IgG1, kappa)
fusion heavy: B2 fusion heavy with L480F, L481E, A543N, P577S
cross light: B1 cross light
heavy: B1 heavy with L238F, L239E, P335S
light: B1 light
notes: structure 3; CEA x CD3; CH2 FES; copies: 1 + 1 + 1 + 2
B5: BCMA-M2-DG2 (bispecific antibody, human IgG1, kappa)
chain: QLQLQESGPGLVKPSETLSLTCTVSGGSISSGSYFWGWIRQPPGKGLEWIGSIYYSGITYYNPSLKSRVTISVDTSKNQFSLKLSSVTAADTAVYYCARHDGAVAGLFDYWGQGTLVTVSSASTKGPSVFPLAPSSKSTSGGTAALGCLVKDYFPEPVTVSWNSGALTSGVHTFPAVLQSSGLYSLSSVVTVPSSSLGTQTYICNVNHKPSNTKVDKKVEPKSCDKTHTGGGSAAAQVQLVESGGGVVQPGRSLRLSCAASGFTFSTYAMNWVRQAPGKGLEWVARIRSKYNNYATYYADSVKDRFTISRDDSKNTLYLQMNSLRAEDTAVYYCARHGNFGNSYVSWFAYWGQGTLVTVSSGGGGSGGGGSGGGGSQTVVTQEPSLTVSPGGTVTLTCRSSTGAVTTSNYANWVQQKPGQAPRGLIGGTNKRAPGVPARFSGSLLGGKAALTLSGVQPEDEAEYYCALWYSNLWVFGGGTKVEIKGGGGSDKTHTCPPCPAPPVAGPSVFLFPPKPKDTLMISRTPEVTCVVVAVSHEDPEVQFNWYVDGVEVHNAKTKPREEQFNSTFRVVSVLTVVHQDWLNGKEYKCKVSNKGLPAPIEKTISKTKGQPREPQVYTLPPCRDELTKNQVSLWCLVKGFYPSDIAVEWESNGQPENNYKTTPPVLDSDGSFFLYSKLTVDKSRWQQGNVFSCSVMHEALHNHYTQKSLSLSPGK
heavy: QLQLQESGPGLVKPSETLSLTCTVSGGSISSGSYFWGWIRQPPGKGLEWIGSIYYSGITYYNPSLKSRVTISVDTSKNQFSLKLSSVTAADTAVYYCARHDGAVAGLFDYWGQGTLVTVSSASTKGPSVFPLAPSSKSTSGGTAALGCLVKDYFPEPVTVSWNSGALTSGVHTFPAVLQSSGLYSLSSVVTVPSSSLGTQTYICNVNHKPSNTKVDKKVEPKSCDKTHTCPPCPAPPVAGPSVFLFPPKPKDTLMISRTPEVTCVVVAVSHEDPEVQFNWYVDGVEVHNAKTKPREEQFNSTFRVVSVLTVVHQDWLNGKEYKCKVSNKGLPAPIEKTISKTKGQPREPQVCTLPPSRDELTKNQVSLSCAVKGFYPSDIAVEWESNGQPENNYKTTPPVLDSDGSFFLVSKLTVDKSRWQQGNVFSCSVMHEALHNRFTQKSLSLSPGK
light: SYVLTQPPSVSVAPGQTARITCGGNNIGSKSVHWYQQPPGQAPVVVVYDDSDRPSGIPERFSGNSNGNTATLTISRVEAGDEAVYYCQVWDSSSDHVVFGGGTKLTVLRTVAAPSVFIFPPSDEQLKSGTASVVCLLNNFYPREAKVQWKVDNALQSGNSQESVTEQDSKDSTYSLSSTLTLSKADYEKHKVYACEVTHQGLSSPVTKSFNRGEC
notes: structure 2; BCMA x CD3; CH2 DG2CH2
B6: BCMA-M2-PG2 (bispecific antibody, human IgG1, kappa)
chain: B5 chain with C499P, A534D
heavy: B5 heavy with C233P, A268D
light: B5 light
notes: structure 2; BCMA x CD3; CH2 PG2CH2
B7: BCMA-M2-SG2 (bispecific antibody, human IgG1, kappa)
chain: B5 chain with C499S, A534D
heavy: B5 heavy with C233S, A268D
light: B5 light
notes: structure 2; BCMA x CD3; CH2 SG2CH2
B8: BCMA-M2-GG2 (bispecific antibody, human IgG1, kappa)
chain: B5 chain with C499G, A534D
heavy: B5 heavy with C233G, A268D
light: B5 light
notes: structure 2; BCMA x CD3; CH2 GG2CH2
B9: BCMA-M2-G2D (bispecific antibody, human IgG1, kappa)
chain: B5 chain with A534D, D539A
heavy: B5 heavy with A268D, D273A
light: B5 light
notes: structure 2; BCMA x CD3; CH2 G2DCH2
B10: BCMA-M2-DG2D (bispecific antibody, human IgG1, kappa)
chain: B5 chain with D539A
heavy: B5 heavy with D273A
light: B5 light
notes: structure 2; BCMA x CD3; CH2 DG2DCH2

Experiments:
Monkey CD3 [1] = molecular target: T3, Monkey CD3 (monkey); assay: flow cytometry, monkey T cells
T3 construct: whole, on cells; also called CD3 of monkey CD3 positive T cells

human CEA = molecular target: T1, human CEA; assay: flow cytometry, human tumor cells (CEA+)
Description: (§1) 1) Cell preparation: T cells isolated from CD3-positive human whole blood were used for a CD3 end affinity detection of multifunctional antibody molecule; positive tumor cells of corresponding antigen were used for detecting affinity of tumor antigen; for example, CD38-positive MM. 1S cells (purchased from the Cell Resource Center of Shanghai Institutes for Biological Sciences, Chinese Academy of Sciences) or RPMI 8226 cells (purchased from the Cell Resource Center of Shanghai Institutes for Biological Sciences, Chinese Academy of Sciences) were used for CD38 antigen detection, and PD-L1 positive H358 cells (purchased from the Cell Resource Center of Shanghai Institutes for Biological Sciences, Chinese Academy of Sciences) were used for PD-L1 antigen detection, and so on. The cells were resuspended with 1% FBS-PBS, adjusted to a density of 4×10⁶/ml, and 50 μl of cells were taken from each well, and then plated at 2×10⁵ per well. Cell plating was operated on ice
(§2) 2) Addition of the antibody: according to the experimental design, the antibody was diluted gradually, and dilution of antibody was operated on ice. For example, the initial concentration of antibody for dilution was 3000 nM, and the antibody was diluted by 3 times with 11 concentration gradients. The diluted antibody was added to a cell well at 50 μl per well, mixed well, and shaked and incubated at 4° C. 1100 rpm/min for 2 h; after washing, the cells were resuspend in 1% FBS-PBS, and a diluted secondary antibody PE anti-human IgG FC (Biolegend, 409304) was added with a final concentration of 8 ug/ml and a volume of 50 μl/well. At the same time, a well only added with cells and secondary antibody was set as a control, the components were mixed well, and incubated under shaking at 1100 rpm/min at 4° C. for 1 h;
(§3) 5) Data analysis: the data was analyzed by a flow analysis software FlowJo 7.6 thereby obtaining an average fluorescence intensity of the specific antibody concentration, plotted by a Graphpad Prism 5 with the antibody concentration (nM) as an abscissa and the average fluorescence intensity as an ordinate; the EC50 value was calculated by the method of One site—Specific binding, and the EC50 value indicated the cell affinity of the antibody to the corresponding target antigen.

Human CD3ε = molecular target: T4, Human CD3ε (human, UniProt P07766 23-126); assay: flow cytometry, human T cells
T4 construct: CD3 on T cells isolated from human whole blood
Method in brief: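 First, cells were plated on ice at 2×10⁵ per well; second, antibody dilutions (top 3000 nM, 3-fold steps) were added for 2 h at 4° C; third, after washing, PE anti-human IgG Fc (final 8 ug/ml) was added for 1 h at 4° C. EC50 was then fitted from MFI versus concentration.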

Monkey CD3 [2] = molecular target: T3, Monkey CD3; assay: flow cytometry, monkey T cells; remark: listed apart in the source
Human BCMA = molecular target: T2, Human BCMA; assay: flow cytometry, human tumor cells (BCMA+)
Description: as §1, §2, §3

Binder	EC50 (Monkey CD3 [1])	EC50 (human CEA)	EC50 (Human CD3ε)	EC50 (Monkey CD3 [2])	EC50 (Human BCMA)
B1	757 nM	35.8 nM	624 nM		
B2	798 nM	32.1 nM	688 nM		
B3	662 nM	30.1 nM	646 nM		
B4	732 nM	42.9 nM	639 nM		
B5			550 nM	501 nM	17.4 nM
B6			599 nM	716 nM	24 nM
B7			400 nM	461 nM	17 nM
B8			448 nM	636 nM	23.6 nM
B9			351 nM	510 nM	19.2 nM
B10			534 nM	641 nM	18.8 nM
